For test [1], the target named is recombinant human neonatal Fc receptor (rhFcRn, R&D systems) (human) (UniProt P55899). Nature of the test: SPR, rhFcRn on CM5, analyte in PBST pH 6.0, steady state affinity.
For test [2] the target is unchanged. Nature of the test: SPR (Biacore 8K), rhFcRn amine-coupled on CM5, analyte in PBST pH 6.0, steady state affinity. A general note: Surface plasmon resonance follows binding to a sensor surface in real time, without labels.

Chain of recombinant human neonatal Fc receptor (rhFcRn, R&D systems) (human) (P55899 24-297 limits assumed, chain 1 of 2): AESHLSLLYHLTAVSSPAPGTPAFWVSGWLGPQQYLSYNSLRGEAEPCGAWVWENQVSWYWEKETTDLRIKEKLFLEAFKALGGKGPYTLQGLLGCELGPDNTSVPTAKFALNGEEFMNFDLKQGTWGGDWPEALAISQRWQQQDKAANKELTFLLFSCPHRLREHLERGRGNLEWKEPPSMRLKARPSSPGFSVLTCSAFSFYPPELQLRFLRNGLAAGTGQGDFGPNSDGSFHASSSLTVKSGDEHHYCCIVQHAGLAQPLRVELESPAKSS
Chain of recombinant human neonatal Fc receptor (rhFcRn, R&D systems) (human) (chain, as listed by the source limits assumed, chain 2 of 2): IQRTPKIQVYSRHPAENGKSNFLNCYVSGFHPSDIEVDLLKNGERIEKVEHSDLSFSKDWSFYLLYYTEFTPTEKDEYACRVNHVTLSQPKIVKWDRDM

Consider Rituximab (antibody), for which the Kd in test [1] is 2.39 µM.

As to “dulaglutide (trade name Trulicity) (Fc fusion)”, in test [2], the Kd came out at 2.09 µM.

What is called Kd is the free concentration of one partner at which half of the binding sites on the other are occupied at equilibrium, for simple one-to-one binding.

(Values after patent US20230174617A1.)
